The text below walks through data of article PMC3753931.

The target of data set [1] is T1, GST-Xl-dsRBD (XlrbpA dsRBD2) (Xenopus laevis) (UniProt Q91836).
T1 sequence: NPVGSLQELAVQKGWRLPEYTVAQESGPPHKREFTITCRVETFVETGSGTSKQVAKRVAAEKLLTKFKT
Put plainly: EMSA. As to conditions: scale: fold higher affinity than P1. (Mobility shift assays separate free from complexed probe on a gel.)

Data set [2] concerns the target T2, GST-Xl-dsRBD (XlrbpA dsRBD2) (Xenopus laevis, UniProt Q91836 112-180).
T2 sequence: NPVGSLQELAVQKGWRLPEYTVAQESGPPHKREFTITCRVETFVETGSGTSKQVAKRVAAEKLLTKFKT
Briefly: EMSA.

In turn, 30-bp dsRNA yielded a binding signal in data set [1] of 30.
Turning to 50-bp dsRNA, the binding signal in data set [1] stood at 30.
The same measure, in the same setting: next, 70-bp dsRNA: 30; 130-bp dsRNA: 30.

B1: 21blunt (dsRNA)
RNA 1: AAGUCACAUUGCCCAAGUCUC
RNA 2: GAGACUUGGGCAAUGUGACUU
Consider B1, for which, in data set [2], the binding result is recorded as “binds”.
